Data set [1] addresses T1, mSNAPc#2 WT (Homo sapiens, UniProt Q5SXM2;Q92966;Q16533;O75971 1-505;1-411;1-268;1-98).
T1 sequence 1: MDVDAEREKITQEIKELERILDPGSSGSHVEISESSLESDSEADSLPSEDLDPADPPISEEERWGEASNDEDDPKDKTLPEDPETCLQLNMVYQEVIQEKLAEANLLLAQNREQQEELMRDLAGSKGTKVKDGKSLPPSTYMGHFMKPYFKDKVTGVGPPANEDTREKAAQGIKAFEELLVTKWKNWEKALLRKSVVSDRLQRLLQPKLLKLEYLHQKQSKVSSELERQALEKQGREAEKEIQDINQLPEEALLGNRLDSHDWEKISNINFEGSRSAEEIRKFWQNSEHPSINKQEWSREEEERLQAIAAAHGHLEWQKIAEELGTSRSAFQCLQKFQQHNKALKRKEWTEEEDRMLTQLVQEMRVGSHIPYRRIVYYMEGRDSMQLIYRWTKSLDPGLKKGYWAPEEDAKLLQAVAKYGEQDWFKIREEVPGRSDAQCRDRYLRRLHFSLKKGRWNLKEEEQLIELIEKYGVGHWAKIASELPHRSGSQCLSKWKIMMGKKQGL
T1 sequence 2: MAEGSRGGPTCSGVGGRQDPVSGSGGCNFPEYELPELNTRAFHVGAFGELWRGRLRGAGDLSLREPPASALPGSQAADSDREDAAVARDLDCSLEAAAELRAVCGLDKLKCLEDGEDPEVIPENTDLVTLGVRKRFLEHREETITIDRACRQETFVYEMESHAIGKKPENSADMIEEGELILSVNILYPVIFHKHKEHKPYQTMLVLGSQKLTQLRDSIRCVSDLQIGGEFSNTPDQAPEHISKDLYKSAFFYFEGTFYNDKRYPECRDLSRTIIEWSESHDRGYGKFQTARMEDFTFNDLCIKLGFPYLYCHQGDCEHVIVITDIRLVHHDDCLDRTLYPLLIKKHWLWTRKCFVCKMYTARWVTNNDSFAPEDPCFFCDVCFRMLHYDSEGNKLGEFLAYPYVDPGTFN
T1 sequence 3: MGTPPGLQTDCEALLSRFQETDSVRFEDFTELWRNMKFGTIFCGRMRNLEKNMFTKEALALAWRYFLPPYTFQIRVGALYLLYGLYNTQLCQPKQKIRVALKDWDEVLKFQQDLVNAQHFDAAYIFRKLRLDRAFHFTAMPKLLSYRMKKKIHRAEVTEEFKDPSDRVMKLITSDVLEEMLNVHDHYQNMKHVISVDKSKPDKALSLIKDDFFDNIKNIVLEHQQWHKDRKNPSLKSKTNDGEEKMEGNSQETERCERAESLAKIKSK
T1 sequence 4: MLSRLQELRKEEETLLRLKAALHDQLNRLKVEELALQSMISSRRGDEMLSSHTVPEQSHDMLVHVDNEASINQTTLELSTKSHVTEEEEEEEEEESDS
Nature of the data set: SPR; protein immobilized; EMSA: 100 mM KCl, 25 mM HEPES-K pH 7.6, 12.5 mM MgCl2, 10 uM ZnCl2, 0.1 mM EDTA, 10% glycerol, 3 mM DTT, 0.5 mM PMSF, 50 nM DNA, RT 30 min; SPR: 100 mM KCl, 12.5 mM MgCl2, 10 uM ZnCl2, 0.1 mM EDTA, 0.05% P20, 25 C. The conditions noted are these: protein: recombinant; tags: FLAG N-term SNAP190; 6xHis N-term SNAP43; copies: 1;1;1;1.

For data set [2], the target named is T2, mSNAPc#2 2Mu (Homo sapiens, UniProt Q5SXM2;Q92966;Q16533;O75971 1-505;1-411;1-268;1-98, Y389A;R151A).
T2 sequence 1: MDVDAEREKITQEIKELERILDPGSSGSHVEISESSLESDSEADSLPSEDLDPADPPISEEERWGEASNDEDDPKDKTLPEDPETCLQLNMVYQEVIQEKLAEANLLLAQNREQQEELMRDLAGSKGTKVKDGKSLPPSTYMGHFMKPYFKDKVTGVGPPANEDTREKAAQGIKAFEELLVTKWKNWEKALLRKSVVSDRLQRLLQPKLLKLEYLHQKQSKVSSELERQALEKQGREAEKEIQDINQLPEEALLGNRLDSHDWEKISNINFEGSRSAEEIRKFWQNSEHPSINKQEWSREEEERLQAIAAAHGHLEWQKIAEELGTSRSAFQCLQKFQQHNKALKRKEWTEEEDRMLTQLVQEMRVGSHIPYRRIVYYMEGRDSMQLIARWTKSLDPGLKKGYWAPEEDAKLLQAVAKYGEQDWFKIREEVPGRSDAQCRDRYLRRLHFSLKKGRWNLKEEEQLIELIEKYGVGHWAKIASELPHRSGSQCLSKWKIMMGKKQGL
T2 sequence 2: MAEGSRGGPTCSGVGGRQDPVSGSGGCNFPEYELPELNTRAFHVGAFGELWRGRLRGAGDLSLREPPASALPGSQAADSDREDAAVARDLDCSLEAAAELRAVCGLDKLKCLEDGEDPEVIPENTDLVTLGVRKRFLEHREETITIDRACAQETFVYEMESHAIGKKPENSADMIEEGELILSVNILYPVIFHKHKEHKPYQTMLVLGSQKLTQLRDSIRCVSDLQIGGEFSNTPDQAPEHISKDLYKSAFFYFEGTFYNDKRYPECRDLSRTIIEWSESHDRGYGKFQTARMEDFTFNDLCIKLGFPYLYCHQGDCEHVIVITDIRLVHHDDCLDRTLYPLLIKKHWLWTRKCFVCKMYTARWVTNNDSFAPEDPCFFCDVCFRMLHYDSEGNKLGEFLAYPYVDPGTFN
T2 sequence 3: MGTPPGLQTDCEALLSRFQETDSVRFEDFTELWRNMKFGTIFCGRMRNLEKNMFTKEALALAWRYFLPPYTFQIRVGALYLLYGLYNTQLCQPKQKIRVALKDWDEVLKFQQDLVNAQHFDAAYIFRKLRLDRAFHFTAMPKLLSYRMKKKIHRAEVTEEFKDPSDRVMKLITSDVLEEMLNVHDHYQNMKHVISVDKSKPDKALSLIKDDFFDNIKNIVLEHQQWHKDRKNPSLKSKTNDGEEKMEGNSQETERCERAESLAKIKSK
T2 sequence 4: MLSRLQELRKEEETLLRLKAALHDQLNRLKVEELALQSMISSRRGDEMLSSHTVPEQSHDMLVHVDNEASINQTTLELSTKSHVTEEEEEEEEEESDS
Nature of the data set: SPR; EMSA: 100 mM KCl, 25 mM HEPES-K pH 7.6, 12.5 mM MgCl2, 10 uM ZnCl2, 0.1 mM EDTA, 10% glycerol, 3 mM DTT, 0.5 mM PMSF, 50 nM DNA, RT 30 min; SPR: 100 mM KCl, 12.5 mM MgCl2, 10 uM ZnCl2, 0.1 mM EDTA, 0.05% P20, 25 C. To be noted: protein: recombinant; tags: as P1; copies: 1;1;1;1.

B1: 25 bp hU6-1 PSE (SPR) (dsDNA)
DNA 1: TGCTTACCGTAACTTGAAAGTATTT
DNA 2: AAATACTTTCAAGTTACGGTAAGCA
B1: the Kd in data set [1] is 289 nM; in data set [2], 1620 nM.

For the origin of these results see publication PMC9652321, “Structural basis of human SNAPc recognizing proximal sequence element of snRNA promoter”.
